Assay results as given in paper PMC10907169.
Where “and” joins values, the source holds several entries; their conditions need not be identical. Identical values can stand only once.

Biological target: T1, Full-length human KIF5A heavy chain (WT), C-terminal FLAG tag (human), Q12840
T1 chain: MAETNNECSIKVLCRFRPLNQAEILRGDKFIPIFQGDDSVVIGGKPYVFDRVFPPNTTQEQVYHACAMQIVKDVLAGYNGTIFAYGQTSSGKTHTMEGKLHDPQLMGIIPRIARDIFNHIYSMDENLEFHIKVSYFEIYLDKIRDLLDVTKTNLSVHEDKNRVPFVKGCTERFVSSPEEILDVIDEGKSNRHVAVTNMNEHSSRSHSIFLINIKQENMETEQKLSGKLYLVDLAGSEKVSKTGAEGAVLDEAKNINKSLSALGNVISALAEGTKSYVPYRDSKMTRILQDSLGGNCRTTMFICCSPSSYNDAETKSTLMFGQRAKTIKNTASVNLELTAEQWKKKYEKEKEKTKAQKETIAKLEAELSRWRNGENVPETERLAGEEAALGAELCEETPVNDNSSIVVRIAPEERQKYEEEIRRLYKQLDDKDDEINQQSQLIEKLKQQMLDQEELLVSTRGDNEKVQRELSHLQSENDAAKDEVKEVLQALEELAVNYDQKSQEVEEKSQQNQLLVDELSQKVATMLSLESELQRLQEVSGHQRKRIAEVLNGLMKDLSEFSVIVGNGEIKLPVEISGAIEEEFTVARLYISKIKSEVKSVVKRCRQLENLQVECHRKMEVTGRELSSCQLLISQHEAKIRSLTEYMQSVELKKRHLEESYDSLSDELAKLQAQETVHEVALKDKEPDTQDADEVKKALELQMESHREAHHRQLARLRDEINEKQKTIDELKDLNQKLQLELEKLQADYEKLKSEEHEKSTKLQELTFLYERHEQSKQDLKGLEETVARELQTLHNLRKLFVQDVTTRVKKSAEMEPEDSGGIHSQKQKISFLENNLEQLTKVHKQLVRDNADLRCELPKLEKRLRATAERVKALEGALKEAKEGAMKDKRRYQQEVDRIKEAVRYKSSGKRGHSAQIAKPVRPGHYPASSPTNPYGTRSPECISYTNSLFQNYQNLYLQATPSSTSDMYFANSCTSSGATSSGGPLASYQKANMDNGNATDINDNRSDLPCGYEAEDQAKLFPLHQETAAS
Assay: mass photometry; single-molecule landing assay, Refeyn OneMP, 25 nM KIF5A, room temperature (~23 °C); results say low salt buffer (150 mM KCl), methods name PBS; monomer to dimer, and dimers to tetramer
Settings: remark: other sources report otherwise

stoichiometry N: 2 and 4
B1: Full-length human KIF5A heavy chain (WT), C-terminal FLAG tag, Q12840 1-1032 (natural protein)
chain: MAETNNECSIKVLCRFRPLNQAEILRGDKFIPIFQGDDSVVIGGKPYVFDRVFPPNTTQEQVYHACAMQIVKDVLAGYNGTIFAYGQTSSGKTHTMEGKLHDPQLMGIIPRIARDIFNHIYSMDENLEFHIKVSYFEIYLDKIRDLLDVTKTNLSVHEDKNRVPFVKGCTERFVSSPEEILDVIDEGKSNRHVAVTNMNEHSSRSHSIFLINIKQENMETEQKLSGKLYLVDLAGSEKVSKTGAEGAVLDEAKNINKSLSALGNVISALAEGTKSYVPYRDSKMTRILQDSLGGNCRTTMFICCSPSSYNDAETKSTLMFGQRAKTIKNTASVNLELTAEQWKKKYEKEKEKTKAQKETIAKLEAELSRWRNGENVPETERLAGEEAALGAELCEETPVNDNSSIVVRIAPEERQKYEEEIRRLYKQLDDKDDEINQQSQLIEKLKQQMLDQEELLVSTRGDNEKVQRELSHLQSENDAAKDEVKEVLQALEELAVNYDQKSQEVEEKSQQNQLLVDELSQKVATMLSLESELQRLQEVSGHQRKRIAEVLNGLMKDLSEFSVIVGNGEIKLPVEISGAIEEEFTVARLYISKIKSEVKSVVKRCRQLENLQVECHRKMEVTGRELSSCQLLISQHEAKIRSLTEYMQSVELKKRHLEESYDSLSDELAKLQAQETVHEVALKDKEPDTQDADEVKKALELQMESHREAHHRQLARLRDEINEKQKTIDELKDLNQKLQLELEKLQADYEKLKSEEHEKSTKLQELTFLYERHEQSKQDLKGLEETVARELQTLHNLRKLFVQDVTTRVKKSAEMEPEDSGGIHSQKQKISFLENNLEQLTKVHKQLVRDNADLRCELPKLEKRLRATAERVKALEGALKEAKEGAMKDKRRYQQEVDRIKEAVRYKSSGKRGHSAQIAKPVRPGHYPASSPTNPYGTRSPECISYTNSLFQNYQNLYLQATPSSTSDMYFANSCTSSGATSSGGPLASYQKANMDNGNATDINDNRSDLPCGYEAEDQAKLFPLHQETAAS
